Results taken from US20250163167A1 (SYNTHEKINE, published 2025).

T1: hIL10Ra ECD antigen (human, UniProt Q13651 22-235)
T1 construct: also called ECD of IL10Ra; extracellular domain of hIL10Ra
T1 sequence: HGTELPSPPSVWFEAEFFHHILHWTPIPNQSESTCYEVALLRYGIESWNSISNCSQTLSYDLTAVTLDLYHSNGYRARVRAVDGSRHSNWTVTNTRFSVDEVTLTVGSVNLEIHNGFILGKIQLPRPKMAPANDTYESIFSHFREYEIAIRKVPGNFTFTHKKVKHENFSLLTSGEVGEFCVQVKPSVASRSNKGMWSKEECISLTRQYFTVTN

T2: hIL10Rb ECD antigen (human, UniProt Q08334 20-220)
T2 construct: Antigen of biopanning and PE-ELISA; also called extracellular domain of hIL10Rb
T2 sequence: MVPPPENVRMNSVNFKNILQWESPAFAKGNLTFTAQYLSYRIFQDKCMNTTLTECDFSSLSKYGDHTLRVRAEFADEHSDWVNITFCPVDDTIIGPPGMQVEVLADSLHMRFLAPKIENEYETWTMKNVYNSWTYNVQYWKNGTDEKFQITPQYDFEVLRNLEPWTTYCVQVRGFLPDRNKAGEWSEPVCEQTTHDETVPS

T3: human IL-10 receptor (hIL-10R alpha and beta chains) on HEK-Blue IL-10 reporter cells (human, UniProt Q13651 22-578; Q08334 20-325)
T3 sequence 1: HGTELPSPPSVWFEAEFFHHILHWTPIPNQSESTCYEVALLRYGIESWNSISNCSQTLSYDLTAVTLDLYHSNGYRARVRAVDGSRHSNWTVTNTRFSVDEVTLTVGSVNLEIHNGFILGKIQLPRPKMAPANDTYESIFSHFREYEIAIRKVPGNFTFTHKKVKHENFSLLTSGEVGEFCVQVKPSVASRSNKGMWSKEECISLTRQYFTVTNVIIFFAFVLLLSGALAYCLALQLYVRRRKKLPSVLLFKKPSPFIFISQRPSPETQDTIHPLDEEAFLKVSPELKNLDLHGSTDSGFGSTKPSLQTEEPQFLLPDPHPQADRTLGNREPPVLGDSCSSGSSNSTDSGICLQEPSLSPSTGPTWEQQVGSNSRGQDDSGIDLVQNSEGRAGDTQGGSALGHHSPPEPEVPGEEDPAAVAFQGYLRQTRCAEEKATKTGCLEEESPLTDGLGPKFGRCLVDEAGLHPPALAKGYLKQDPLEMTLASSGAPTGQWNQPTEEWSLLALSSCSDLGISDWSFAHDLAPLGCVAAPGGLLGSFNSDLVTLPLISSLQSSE
T3 sequence 2: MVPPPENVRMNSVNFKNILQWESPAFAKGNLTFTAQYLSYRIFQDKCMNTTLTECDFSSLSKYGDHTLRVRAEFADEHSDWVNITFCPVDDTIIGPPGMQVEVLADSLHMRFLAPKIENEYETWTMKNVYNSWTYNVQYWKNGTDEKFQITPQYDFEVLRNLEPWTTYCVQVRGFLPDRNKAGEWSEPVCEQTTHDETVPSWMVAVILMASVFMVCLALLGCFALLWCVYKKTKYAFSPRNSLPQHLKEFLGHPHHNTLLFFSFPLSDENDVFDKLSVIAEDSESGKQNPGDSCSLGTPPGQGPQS

B1: hIL10Ra VHH18 (VHH)
VHH: QVQLQESGGGSVQAGGSLRLSCAVSGYTYNSNCMGWFRQAPGKEREGVATIYTGVGSTYYADSVKGRFTISQDNAKNTVYLQMNSLKPEDTAMYYCAAEPLSRVYGGSCPTPTFGYWGQGTQVTVSS
notes: Phage clone, periplasmic extract
B2: hIL10Ra VHH7 (VHH)
VHH: QVQLQESGGGSVQAGGSLRLSCAVSGYTFNSNCMGWFRQAPGKEREGVATIYTGVGSTYYADSVKGRFTISQDNAKNTVYLQMNSLKPEDTAMYYCAAEPLSRVYGGSCPTPTFGYWGQGTQVTVSS
notes: as for B1
B3: hIL10Rb VHH-5 (VHH)
VHH: QVQLQESGGGLVQPGGSLRLSCAASGYTYSSYCMGWFRQAPGKEREGVAHIDSDGSTTYADSVKGRFTISKDNAKNTLYLQMNSLKPEDTAMYYCAADPIPGPGYCDGGPNKYWGQGTQVTVSS
notes: as for B1
B4: hIL10Rb VHH-10 (VHH)
VHH: QVQLQESGGGLVQPGGSLRLSCAASGYTYSSYCMGWFRQAPGKEREGVAHIDSDGSTTYADSVKGRFAISKDNAKNTLYLQMNSLKPEDTAMYYCAADPIPGPGYCDGGPNKYWGQGTQVTVSS
notes: as for B1
B5: hIL10Rb VHH-25 (VHH)
VHH: QVQLQESGGGSVQAGGSLRLSCAASGYTYSSYCMGWFRQAPGKEREGIAHIDSDGSTTYADSVKGRFTISKDNAKNTLYLQMNSLKPEDTAMYYCAADPIPGPGYCDGGPNNYWGQGTQVTVSS
notes: as for B1
B6: hIL10Rb VHH-24 (VHH)
VHH: QVQLQESGGGSVQAGGSLKLSCAASGYTYSSYCMGWFRQAPGKEREGVAHIDSDGSTTYADSVKGRFTISKDNAKNTLYLQMNSLKPEDTAMYYCAADPIPGPGYCDGGPNNYWGQGTQVTVSS
notes: as for B1
B7: hIL10Rb VHH-20 (VHH)
VHH: QVQLQESGGGSVQAGGSLRLSCAASGYTYSSYCMGWFRQAPGKEREGVAHIDSDGSTTYADSVKGRFAISKDNAKNTLYLQMNSLKPEDTAMYYCAADPIPGPGYCDGGPNKYWGQGTQVTVSS
notes: as for B1
B8: hIL10Rb VHH-22 (VHH)
VHH: QVQLQESGGGSVQAGGSLRLSCAASGYTDSRYCMGWFRKAPGKEREGVAHIDSDGSTSYADSVKGRFTISKDNAKNTLYLQMNSLKPEDTAMYYCAADPIPGPGYCDGGPNKYWGQGTQVTVSS
notes: as for B1
B9: hIL10Rb VHH-13 (VHH)
VHH: QVQLQESGGGSVQAGGSLRLSCAASGYTYSSYCMGWFRQAPGKEREGVAHIDSDGSTSYADSVKGRFTISKDNAKNTLYLQMNSLKPEDTAMYYCAADPIPGPGYCDGGPNNYWGQGTQVTVSS
notes: as for B1
B10: hIL10Ra VHH2 (VHH)
VHH: QVQLQESGGGSVQAGGSLRLSCVASRYLYSTNYMAWFRQSPGKEREAVAVIYTASGATLYTDSVKGRFTISQDNAKMTVYLQMNRLKSEDTAMYYCAAVRKTDSYLFDAQSFTYWGQGTQVTVSS
notes: as for B1
B11: hIL10Ra VHH5 (VHH)
VHH: QVQLQESGGGSIQAGGSLRLSCVASKYLYSTNYMAWFRQSPGKEREAVAAIYTASGATLYSDSNKGRFTISQDNAKMTVYLQMNSLKSEDTAMYYCAAVRKTGSYLFDAQSFTYWGQGTQVTVSS
notes: as for B1
B12: hIL10Ra VHH4 (VHH)
VHH: QVQLQESGGGSIQAGGSLRLSCAASRYLYSIDYMAWFRQSPGKEREPAAVIYTASGATFYPDSVKGRFTISQDNAKMTVYLQMNSLKSEDTAMYYCAAVRKTDSYLFDAQSFTYWGQGTQVTVSS
notes: as for B1
B13: hIL10Ra VHH3 (VHH)
VHH: QVQLQESGGGSIQAGGSLRLSCVASRYLYSTNYMAWFRQSPGKEREAVAVIYTASGATLYTDSVKGRFTISQDNAKMTVYLQMNRLKSEDTAMYYCAAVRKTDSYLFDAQSFTYWGQGTQVTVSS
notes: as for B1
B14: IL10R binding molecule of SEQ ID NO: 302 (bispecific antibody)
chain: QVQLQESGGGSVQAGGSLRLSCAASGYSNCSYDMTWYRQAPGKEREFVSAIHSDGSTRYADSVKGRFFISQDNAKNTVYLQMNSLKPEDTAMYYCKTDPLHCRAHGGSWYSVRANYWGQGTQVTVSSGGGSQVQLQESGGGSVEAGGSLRLSCAASGYTHSSYCMGWFRQAPGKEREGVAAIDVDGSTTYADSVKGRFTISKDNAKNTLYLQMNSLKPEDTGMYYCAAEFADCSSNYFLPPGAVRYWGQGTQVTVSSASHHHHHH
B15: hIL10Rb VHH-2 (VHH)
VHH: QVQLQESGGGSVQAGGSLRLSCAASGYTYSSYCMGWFRQAPGKEREGVAAIDSDGSTRYADSVKGRFTISKDNAKNTLYLQMNSLKPEDTAMYYCAAEPYCSGGYKRTMVAEFGYWGQGTQVTVSS
notes: as for B1
B16: hIL10Rb VHH-9 (VHH)
VHH: QVQLQESGGGLVQPGGSLRLSCAASGYTYSSGCMGWFRQAPGKEREGVATINSDGSTNYADSVKGRFTISKDNAKNTLYLQMNSLKPEDTAMYYCAAEPYCSGGYPRWSVAEFGYWGQGTQVTVSS
notes: as for B1
B17: hIL10Rb VHH-14 (VHH)
VHH: QVQLQESGGGSVQAGGSLRLSCAASGYTYSSGCMGWFRQAPGKEREGVATINSDGSTNYADSVKGRFTISKDNAKNTLYLQMNSLKPEDTGMYYCAAEPYCSGGYPRWSVAEFGYWGQGTQVTVSS
notes: as for B1
B18: hIL10Rb VHH-18 (VHH)
VHH: QVQLQESGGGSVQAGGSLRLSCAASGDTYSSYCMGWFRQAPGKEREGVAFIDSDGSTRYADSVEGRFTISKDNAKNTLYLQMNSLKPEDTAMYYCAAEPYCSGGYHRKEMAEFGYWGQGTQVTVSS
notes: as for B1
B19: hIL10Rb VHH-8 (VHH)
VHH: QVQLQESGGGSVQAGGSLRLSCAASGYSYSSYCMGWFRQAPGKEREGVAAIASDGSTSYADSVKGRFAISKDNAKNTLYLQMASLKPEDTAMYYCAAEPWCTGGYSRLTPAEYGYWGQGTQVTVSS
notes: as for B1
B20: hIL10Rb VHH-11 (VHH)
VHH: QVQLQESGGGSVQAGGSLRLSCAASGYTYSSYCMGWFRQAPGKGREGVAAIDSDGSTRYADSVKGRFTISKDNAKNTLYLQMNSLKPEDTAMYYCAAEPYCSGGYKRTMVAEFGYWGQGTQVTVSS
notes: as for B1
B21: hIL10Rb VHH-7 (VHH)
VHH: QVQLQESGGGSVQAGGSLRLSCAASGYTYSSGCMGWFRQAPGKEREGVATINSDGSTNYADSVKGRFTISKDNAKNTLYLQMNSLKPEDTAMYYCAAEPYCSGGYPRWSVAEFGYWGQGTQVTVSS
notes: as for B1
B22: hIL10Rb VHH-23 (VHH)
VHH: QVQLQESGGGSVQAGGSLRLSCAASGYTYSSYCMGWFRQAPGKEREGVAAIDSDGSTRYADSVKGRFTISKDNAKKILYLQMNSLKVEDTAMYYCAAEPYCSGGYKRTMVAEFGFWGQGTQVTVSS
notes: as for B1
B23: IL10R binding molecule of SEQ ID NO: 303 (bispecific antibody)
chain: QVQLQESGGGSVQAGGSLRLSCAASGYSNCSYDMTWYRQAPGKEREFVSAIHSDGSTRYADSVKGRFFISQDNAKNTVYLQMNSLKPEDTAMYYCKTDPLHCRAHGGSWYSVRANYWGQGTQVTVSSGGGSQVQLQESGGGSVQAGGSLRLSCAASGYSYSSYCMGWFRQAPGKEREGVATIDSDGMTRYADSVKGRFTISKDNAKNTLYLQMNSLKPEDTAMYYCAAPLYDCDSGAVGRNPPYWGQGTQVTVSSASHHHHHH
B24: hIL10Rb VHH-17 (VHH)
VHH: QVQLQESGGGSVQAGGSLRLSCTVSRYTASVNYMGWFRQAPGKEREGVATIFTGAGTTYYANSVKGRFTISRDNAKNTAYLQMNSLKPEDTAMYYCAVDFRGGLLYRPAYEYTYRGQGTQVTVSS
notes: as for B1

Legend:
[1] = target: T1, hIL10Ra ECD antigen; assay: periplasmic extract ELISA (PE-ELISA) of phage clones
[2] = target: T2, hIL10Rb ECD antigen; assay: as above
[3] = target: T3, human IL-10 receptor (hIL-10R alpha and …); assay: cell-based or functional assay

Binder	binding result [2]	also measured
B1		binding result [1]: binds
B2		binding result [1]: binds
B3	binds	
B4	binds	
B5	binds	
B6	binds	
B7	binds	
B8	binds	
B9	binds	
B10		binding result [1]: binds
B11		binding result [1]: binds
B12		binding result [1]: binds
B13		binding result [1]: binds
B14		Abs 630 (25 nM) [3]: 1.98 Abs 630; Abs 630 (100 nM) [3]: 2.09 Abs 630
B15	binds	
B16	binds	
B17	binds	
B18	binds	
B19	binds	
B20	binds	
B21	binds	
B22	binds	
B23		Abs 630 (25 nM) [3]: 1.92 Abs 630; Abs 630 (100 nM) [3]: 1.93 Abs 630
B24	binds	
